Reference: patent publication US20210246195A1 (CZ BIOHUB SF, published 2021)
Changes are numbered by the printed parent chain.

B1: PA01P2E06 (antibody, V domains shown)
VH: HVQLVQSGADVKKPGSSVKVSCKFSGGTFNNDSINWVRQAPGQGLEWMGVIMPFFGATRFAPKFQGRVTLTADKFTSTGYMELGSLKSDDTAVYYCARDKPPDDKWADYGMDVWGQGTTVTVSS
VL: SYELTQPPSVSVSPGQTARITCSGDALPKQYVYWYQQKTGQAPVLVIYKDTERPSGIPERFSGSTSGTTVTLTISGVQADDEADYFCQSADRNANYRVFGGGTKLTVL
notes: subject PA01; also called Clone PA01P2E06
B2: PA01P2A12 (antibody, V domains shown)
VH: QVQLVQSGAEVKKPGASVMLSCKASGYIFTNSDINWVRQAPGQGPEWMGWMNPKSGNTGYEQKFQGRVTMTTNTSISTAYMELSRLRSEDTAVYYCARSTGAVAGNFDYWGQGTPVTVSS
VL: EIVMTQSPATLSVSLGDRATLSCRASQSISRNLAWYQQKPGQAPRLLIYGASIRITDIPARFSGSGSGTEFTLTISSLQSEDFAIYFCQQYNNWRTFGQGTRVELK
notes: subject PA01; also called Clone PA01P2A12
B3: PA01P2A05 (antibody, V domains shown)
VH: QVQLQESGPGLVKPSQTLSLTCTVSGGSMRSGDYYWSWIRQPPGKGLEWIGYIYFTGSSYYNPSLKSRATISVDTSKNQFSLKLNSVTAADTAVYFCARGVDVDLTFFDCWGHGTLVTVSS
VL: SYVLTQPPSVSLAPGKTARITCGGNNIGNKSVHWYQQKPGQAPVLVIYYDSDRPSGIPERFSGSNSGNTATLTINRVEAGDEADYHCQVWDSSTDHRVFGEGTKLTVL
notes: subject PA01; also called Clone PA01P2A05
B4: PA01P2C05 (antibody, V domains shown)
VH: QLLLQESGPGLVKPSETLSLSCTVSAGSITSINYSWGWIRQPPGKGLEWIASVYFSGSIYYNPSLKSRVAISVDTSKNTFSLNLTSVTAADTAVYYCARLRLDTGRDSSGLSYREHFDYWAQGTLVTVSS
VL: DIQMTQSPSTLSASVGDRVTITCRASQSIGMWLAWFQQKPGKAPKLLIYKASTLESGVPSRFSGSGSGTEFTLTINSLQPDDFATYYCQQYNSYLFTFGPGTKVDIK
notes: subject PA01; also called Clone PA01P2C05
B5: PA11P1C03 (antibody, human IgG1, V domains shown)
VH: EVQLVQSGGGLVKPGGSLRLSCAASGSTLTNYNINWVRQAPGKGLQWVSSISGTRDYTYYADSVVGRFTISRDNAKNSVYLQMNSLRAEDTAVYYCARGREVGGDYDSYDWGQGTLVTVSS
VL: DIQMTQSPSSLSASVGDRVTITCQASQDISTFLHWYQQKPGKAPSVLIYGASDLKTGVPSRFSGSGSGTHFTLTISSLQPEDIATYYCQQYDHLPLTFGGGTKVEIK
notes: human IgG1
B6: PA11P1D11 (antibody, human IgG1, V domains shown)
VH: QVELVESGGGVVQPGRSLRLSCVASGFTFSDYGMHWVRQAPGKGLEWVAVIWFDGSSKYYADSVKGRFTISRDDSKNTVFMQMNNVRVEDTAVYYCAREQWLGTEYFQNWGQGTLVTVSS
VL: EIVMTQSPATLSLFPGERATLSCRASQSVAGNLAWYQQKPGQAPRLLIYEASTRATDIPARFSGSGSETEFTLTISSLQSEDFAVYYCQQYKKWLITFGQGTRLEIK
notes: human IgG1
B7: PA11P1F03 (antibody, human IgG1, V domains shown)
VH: QVQLQQWGAGLLKPSETLSLNCTVYHGSLSTSYWSWIRQPPGRGLEWIGEINDSGATNYNPSLKSRVIISVDTSKDQFSLKLTSVTAADTAMYYCARAPLLWVGESFFYYFDSWGQGILVTVSS
VL: DIQMTQSPSSLSASVGDRVSITCRAGQSIDTYLNWYQHKPGKAPDLLIYTTSTLHSGVPSRFSGSGSGTDFTLTITSLQPEDFAIYYCQQSYKSPYTFGQGTKVEIK
notes: human IgG1
B8: PA12P1D02 (antibody, human IgG1, V domains shown)
VH: QLQLQQWGAGLVKPSETLSLTCTVSGGSLSGHFWSWIRQSPEKGLEWIGEINHSGRKNYNPSLMIRVDISIDTSKNQFSMRMTSLTAADSAVYYCARVGRNIVDTDDAFDVWGRGTLVTVSS
VL: EIVLTQSPGTLSLSPGDTVTLSCRASQTIDSIYLAWYQQRPGQAPRLLIYGASTRATGTPDRFSGGGSGTDFTLTITRLEPEDFAVYFCQQYGTSPPITFGRGTRLEIK
notes: human IgG1
B9: PA12P3E11 (antibody, human IgG1, V domains shown)
VH: QVQLVESGGGLVTPGGSLRLSCTVSGFTLSDYYMSWIRQAPGKGLDWLSYISGSGDNKNYADSVRGRFTISRDNSKNSLYLQMNSLRAEDTAVYYCAREFPSGGYSPGVVLWGQGTLVTVSS
VL: NFVLTQPHSVSESPGKTVTISCARSSGSIAGSFVQWYQQRPGSSPTTVIYEDTRRPSGVPDRFSGSIDSSSNSASLTISGLKTEDEADYYCQSYDSTNPWVFGGGTKLTVL
notes: human IgG1
B10: PA14P1D11 (antibody, human IgG1, V domains shown)
VH: EVQLLESGGGLVQPGGSLKLSCVASGFTFSSYAMMWVRQAPGKGLEWISSISSSGGSTYYADSVKGRFTISRDNSKNTLYLQMNSLRVEDTAVYYCAKSHCSTTSCPRAFYYYGMDVWGQGTTVTVSS
VL: DIQMTQSPSSLSASVGDRVTITCRASQTITTYLNWYQQKPGKAPKLLIYAASSLQSGVPSRFSGSGSGTDFTLSLSSLQPEDSATYYCQQSYSTLGAFGGGTKVEIK
notes: subject PA14; also called Clone PA14P1D11
B11: PA12P3C01 (antibody, human IgG1, V domains shown)
VH: QVQLVQSGAEVKKPGASVKVSCQASGYTFTRYDINWVRQATGQGLEWMGWLNPKSGDTGYAQKFQGRVTMTRDTSISTAYMELTSLTSDDTAVYYCARGVDANHWGQGSLVTVSS
VL: DIVVTQSPDSLAVSLGERATINCKSSQSIFDTSSNKNYLAWFRQRPGQPPQLLIYWASTRESGVPDRFSGSGSGTDFTLTISSLQAEDVAVYYCHQYYSLPHAFGQGTKLEIK
notes: human IgG1
B12: PA11P1D12 (antibody, human IgG1, V domains shown)
VH: QVQLRVSGPGLVNPSETLSLTCIVSGDSLRDYYWSWIRQSPGKGLEWIGYVTESGGAHYNPSLESRVTISVDASKTQFSLNLKSVTAADTAVYYCARDAYSSTWYTVGWFDPWGPGSLVTVSS
VL: EIVLTQSPATLSLSPGERATLSCRASQDVGVYLAWYQQKPGQAPRLIIYDASDRVSGVPARFTGSGSGTDFTLTITSLEPEDFAVYFCQQRTSGLTFGGGTTLEIK
notes: human IgG1
B13: PA11P1E01 (antibody, human IgG1, V domains shown)
VH: QVQLVQSGSELRRPGASVKVSCKTSGYAFTHFAMNWLRQAPGQGLEWLGWINTHSGNPTYAQGFTGRIVFSLDTSAGTAYLEISSLKAEDTAVYYCARERYFDFWGQGTLVAVSS
VL: QSVLTQPPSASGTPGQRVTISCSGTNSNIGKNFLYWYQQLPGTAPKLLIFSSNQRPSGVPDRFSGSKSGTSASLAISGLRSEDEADYYCAAWDDNLSGWVFGGGTKVTVL
notes: human IgG1
B14: PA11P1C11 (antibody, human IgG1, V domains shown)
VH: B13 VH with R13K, V20L, K23R, A28T, T30I, I68F, T74V, S85G, T109A
VL: B13 VL with N26S, L40V, F50Y, N95S
notes: human IgG1
B15: PA12P3E09 (antibody, human IgG1, V domains shown)
VH: QVQLVQSGAEVKKPGSSVKVSCKASGGTFSSYSISWVRQAPGQGLEWMGGIIPIFGSGSYAQKFQGRVTITADKSTSTAYMELSSLSSDDTAVYYCARGESPSNFVYYGMDVWGQGTTVTVSS
VL: DIVLTQSPLSLPVTPGEPASISCRSSHSLLHSNGYNHLDWYLQKPGQSPQLLIYLGSNRASGVPDRFSGSGSGTDFTLKISRVEAEDVGVYYCMQALLVTFGPGTKVDIK
notes: human IgG1
B16: PA11P1C04 (antibody, human IgG1, V domains shown)
VH: QVQLQESGPGLVKPSETLSLTCTVSGGSISSYYWNWIRQPPGKGLEWIGYIYYSGSTNYNPSLKSRATISVDTSKNQFSLKLSSVTAADTAVYYCARANLFGVALRRVLGPFDYWGQGTLVTVSS
VL: DIQMTQSPSSLSASVGDRVTIACRASQSIANYLNWYQQKPGKAPKLLIYAASNLQSGVPSRFSGSGSGTDFTLTISSLQPEDFATYYCQQSYSTPYTFGQGTKLEIK
notes: human IgG1
B17: PA12P3E04 (antibody, human IgG1, V domains shown)
VH: EVKVVESGGGLVQPGGSLRLSCAASEFTFTYYWMSWIRQAPGKGLEWVANVNGDATEKYYVDSVKGRFTISRDNPKKTVYLQMNSLRVEDTAVYYCARVGTTVVNDGFDLWGLGTMVTVSS
VL: SYVLTQSHSVSVAPGQTARITCGGENIGGKGVHWYQQKPGQAPLLVVSSDTGRRSVTPDRFSGSNSGDTATLIISRVEAGDEADYYCQVWDPTSEYVFGSGTKVTVL
notes: human IgG1
B18: PA11P1G10 (antibody, human IgG1, V domains shown)
VH: QVQLQESGPGLVKPSQTLSLTCTVSGGSINTGAYYWSWIRQHPGKGLEWIGYIYYSGSTYYNPSLKSRVTISKDTSKNQFSLRLTSVTAADTAVYYCVREKLTGAPDNWGQGTLVAVSS
VL: DIQMTQSPSSLSASVGDRVTITCRASQGVSNYLAWFHQKPGKAPKSLIYAASTLHDGVPSSFSGSGSGTEFTLTISDLQPEHFGTYYCEQYNSYPFTFGPGTTVDFK
notes: human IgG1
B19: PA14P3H08 (antibody, human IgG1, V domains shown)
VH: QVQLVESGGGVVQPGRSLTLSCAASGFNFKTYGMHWVRQAPGKGLEWVAVIYHDGNDKFYADSVKGRFTISRDNSKNTLYVQMSSLRADDTAIYYCAKGIFSSGYHYGMDVWGQGTAVIVSS
VL: DIQMTQSPSSLSASLGDSVTITCLASQGIKEFLSWFQQKPGQAPKLLIYDASSSHSGVPSRFSGSGSATHFTLTISSLQPDDIATYYCQQYHQVPLTFGQGTRLEIK
notes: human IgG1
B20: PA11P1G04 (antibody, human IgG1, V domains shown)
VH: EVQLVESGGGLVQPGGSLRLSCAASGFTFSSYWMSWVRQAPGKGLEWVANIKQDGSEKDYVDSVKGRFTISRDNAKNSLYLQLNSLRAEDTAVYYCARERSTQSSSWYVSSYYSYYGMDVWGQGTTVTVSS
VL: SSELTQDPAVSVALGQTVTITCQGDSLRSFYASWYQQKPGQAPVFVIYGKYNRPSGIPDRFSGSSSGNTASLTITGAQAEDEADYYCNSRDSSDNHLGVFGGGTKLTVL
notes: human IgG1
B21: PA12P4D02 (antibody, human IgG1, V domains shown)
VH: QVQLVESGGGVVQPGRSLRLSCAASGFTFSSYAMHWVRQAPGKGREWVAALSYDGSSTYYADSVKGRLTISRDNSKNTLYLQMNSLRAEDTAVYFCTRVPYGEGRAANDYWGQGTLVTVSS
VL: DIQMTQSPSTLSASVGDRVTITCRASQSIGSWLAWYQQKPGKAPKLLIYKASNIESGVPSRFSGSGSGTEFTLTISSLQPDDFATYYCQHYNTYSRSFGGGTEVAIK
notes: human IgG1

These binders were tested against T1, BSA (UniProt P02769 25-607) (assay: indirect ELISA heat map, hIgG subtracted).
T1 construct: also called bovine serum albumin; immobilized BSA
T1 sequence (P02769 25-607 limits assumed): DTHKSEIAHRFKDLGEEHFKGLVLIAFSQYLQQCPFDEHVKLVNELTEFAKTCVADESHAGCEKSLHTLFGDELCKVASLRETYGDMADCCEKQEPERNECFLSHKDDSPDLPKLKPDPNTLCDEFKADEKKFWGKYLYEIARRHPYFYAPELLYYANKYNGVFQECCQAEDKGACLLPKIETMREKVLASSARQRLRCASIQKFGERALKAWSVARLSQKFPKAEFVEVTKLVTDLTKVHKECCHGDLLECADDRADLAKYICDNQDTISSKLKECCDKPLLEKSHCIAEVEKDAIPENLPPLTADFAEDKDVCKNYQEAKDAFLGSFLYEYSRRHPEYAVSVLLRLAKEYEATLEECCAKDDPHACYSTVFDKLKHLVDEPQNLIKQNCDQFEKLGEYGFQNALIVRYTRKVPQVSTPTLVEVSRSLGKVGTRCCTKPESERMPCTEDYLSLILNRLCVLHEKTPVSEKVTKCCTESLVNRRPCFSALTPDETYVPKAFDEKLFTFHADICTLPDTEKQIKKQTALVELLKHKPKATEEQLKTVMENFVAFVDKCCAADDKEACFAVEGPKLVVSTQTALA

Row | Binder | binding result
1 | B1 | no binding (tested: 2 ng/µL)
2 | B2 | no binding (tested: 2 ng/µL)
3 | B3 | no binding (tested: 2 ng/µL)
4 | B4 | no binding (tested: 2 ng/µL)

Molecular target: T1, BSA
Experiment: indirect ELISA heat map, hIgG subtracted
Remark: another data set of the same source

Row | Binder | binding result
5 | B5 | no binding (tested: 2 ng/µL)
6 | B6 | no binding (tested: 2 ng/µL)
7 | B7 | no binding (tested: 2 ng/µL)
8 | B8 | no binding (tested: 2 ng/µL)
9 | B9 | no binding (tested: 2 ng/µL)
10 | B10 | no binding (tested: 2 ng/µL)
11 | B11 | no binding (tested: 2 ng/µL)
12 | B12 | no binding (tested: 2 ng/µL)
13 | B13 | no binding (tested: 2 ng/µL)
14 | B14 | no binding (tested: 2 ng/µL)
15 | B15 | no binding (tested: 2 ng/µL)
16 | B16 | no binding (tested: 2 ng/µL)
17 | B17 | no binding (tested: 2 ng/µL)
18 | B18 | no binding (tested: 2 ng/µL)
19 | B19 | no binding (tested: 2 ng/µL)
20 | B20 | no binding (tested: 2 ng/µL)
21 | B21 | no binding (tested: 2 ng/µL)
